In the supplement of paper PMC9112550, “Optimization of the antimicrobial peptide Bac7 by deep mutational scanning” (BMC Biology, 2022):

Test system: Escherichia coli TOP10
Experiment: shrunken log2 fold change of peptide-encoding DNA abundance (4.5 h post-induction vs induction); higher = less antimicrobial activity (less host growth inhibition)
Conditions: time post-induction: 4.5 h; library: site-saturation at positions 5, 18, 19, 20
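Further: peptides expressed intracellularly from a pBAD plasmid library in pooled LB shake-flask culture, induced with 0.3% L-arabinose, DNA abundance read by NGS, three biological replicates, DESeq2 with apeglm shrinkage.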

For RRIRTRPPRLPRPRPRPTFKPRP, which “shrunken log2 fold change” value is on record?
Its value is -0.227.

With RRIRMRPPRLPRPRPRPLTGPRP as the sequence, how does the “shrunken log2 fold change” value read?
Its value is 0.0753.

RRIRKRPPRLPRPRPRPNMEPRP was tested. Which “shrunken log2 fold change” value did it give?
The value was -0.0503.

For RRIRRRPPRLPRPRPRPVGSPRP, which “shrunken log2 fold change” value is on record?
Its value is 0.432.

RRIRFRPPRLPRPRPRPIHAPRP was tested. Which “shrunken log2 fold change” value did it give?
The value was -0.0507.

RRIRWRPPRLPRPRPRPMQYPRP was tested. Which “shrunken log2 fold change” value did it give?
Its value is 0.0439.

How did the “shrunken log2 fold change” value turn out when RRIRNRPPRLPRPRPRPMCNPRP was run?
Its value is -0.0631.

For RRIRWRPPRLPRPRPRPICYPRP, which “shrunken log2 fold change” value is on record?
The value was -0.214.

For RRIRRRPPRLPRPRPRPDYGPRP, which “shrunken log2 fold change” value is on record?
Its value is -0.28.

For RRIRTRPPRLPRPRPRPYWAPRP, which “shrunken log2 fold change” value is on record?
The value was -0.0649.

How did the “shrunken log2 fold change” value turn out when RRIRSRPPRLPRPRPRPWVTPRP was run?
The value was -0.89.

RRIRFRPPRLPRPRPRPSNTPRP was tested. Which “shrunken log2 fold change” value did it give?
The value was -0.422.

How did the “shrunken log2 fold change” value turn out when RRIRVRPPRLPRPRPRPSCWPRP was run?
Its value is 0.178.

RRIRKRPPRLPRPRPRPMQWPRP was tested. Which “shrunken log2 fold change” value did it give?
The value was 0.263.

How did the “shrunken log2 fold change” value turn out when RRIRWRPPRLPRPRPRPAQRPRP was run?
Its value is 0.418.

Which “shrunken log2 fold change” value does the source give for RRIRKRPPRLPRPRPRPYLEPRP here?
The value was 0.0252.

Which “shrunken log2 fold change” value does the source give for RRIRARPPRLPRPRPRPGPPPRP here?
Its value is 0.736.

With RRIRQRPPRLPRPRPRPLIYPRP as the sequence, how does the “shrunken log2 fold change” value read?
The value was -0.457.

Which “shrunken log2 fold change” value does the source give for RRIRIRPPRLPRPRPRPTHYPRP here?
Its value is -0.392.

RRIRYRPPRLPRPRPRPIYTPRP was tested. Which “shrunken log2 fold change” value did it give?
The value was -0.943.

Which “shrunken log2 fold change” value does the source give for RRIRDRPPRLPRPRPRPDMDPRP here?
Its value is 0.2.

How did the “shrunken log2 fold change” value turn out when RRIRWRPPRLPRPRPRPCFQPRP was run?
Its value is -0.222.

RRIRGRPPRLPRPRPRPMGYPRP was tested. Which “shrunken log2 fold change” value did it give?
Its value is 0.111.

How did the “shrunken log2 fold change” value turn out when RRIRNRPPRLPRPRPRPNIGPRP was run?
Its value is -0.00968.

Which “shrunken log2 fold change” value does the source give for RRIRMRPPRLPRPRPRPQWGPRP here?
Its value is 0.0503.

Which “shrunken log2 fold change” value does the source give for RRIRDRPPRLPRPRPRPAMFPRP here?
The value was -0.228.

For RRIRGRPPRLPRPRPRPGSTPRP, which “shrunken log2 fold change” value is on record?
The value was 0.75.

RRIRDRPPRLPRPRPRPELEPRP was tested. Which “shrunken log2 fold change” value did it give?
Its value is 0.05.

With RRIRSRPPRLPRPRPRPNCYPRP as the sequence, how does the “shrunken log2 fold change” value read?
Its value is -0.0528.

With RRIRDRPPRLPRPRPRPEGMPRP as the sequence, how does the “shrunken log2 fold change” value read?
Its value is 0.896.

With RRIRARPPRLPRPRPRPLGTPRP as the sequence, how does the “shrunken log2 fold change” value read?
The value was 0.407.

Which “shrunken log2 fold change” value does the source give for RRIRDRPPRLPRPRPRPPWAPRP here?
The value was 0.311.

Which “shrunken log2 fold change” value does the source give for RRIRGRPPRLPRPRPRPTTHPRP here?
The value was 0.875.

With RRIRDRPPRLPRPRPRPTWGPRP as the sequence, how does the “shrunken log2 fold change” value read?
Its value is 0.282.

How did the “shrunken log2 fold change” value turn out when RRIRMRPPRLPRPRPRPASGPRP was run?
Its value is 0.652.

With RRIRARPPRLPRPRPRPAQEPRP as the sequence, how does the “shrunken log2 fold change” value read?
Its value is 0.582.

For RRIRKRPPRLPRPRPRPWYKPRP, which “shrunken log2 fold change” value is on record?
The value was -0.0194.

For RRIRSRPPRLPRPRPRPICAPRP, which “shrunken log2 fold change” value is on record?
Its value is 0.47.

With RRIRERPPRLPRPRPRPPPYPRP as the sequence, how does the “shrunken log2 fold change” value read?
Its value is -0.231.

For RRIRNRPPRLPRPRPRPFGYPRP, which “shrunken log2 fold change” value is on record?
Its value is -0.377.

RRIRERPPRLPRPRPRPMLVPRP was tested. Which “shrunken log2 fold change” value did it give?
The value was -0.225.

With RRIRCRPPRLPRPRPRPFGTPRP as the sequence, how does the “shrunken log2 fold change” value read?
The value was -0.256.

How did the “shrunken log2 fold change” value turn out when RRIRQRPPRLPRPRPRPPGQPRP was run?
Its value is 0.136.

Which “shrunken log2 fold change” value does the source give for RRIRFRPPRLPRPRPRPELTPRP here?
The value was 0.136.

RRIRDRPPRLPRPRPRPSIVPRP was tested. Which “shrunken log2 fold change” value did it give?
The value was -0.0831.

Which “shrunken log2 fold change” value does the source give for RRIRQRPPRLPRPRPRPHVLPRP here?
The value was 0.0625.

RRIRARPPRLPRPRPRPNLGPRP was tested. Which “shrunken log2 fold change” value did it give?
The value was 0.0306.

For RRIRKRPPRLPRPRPRPMQCPRP, which “shrunken log2 fold change” value is on record?
The value was -0.0161.

RRIRVRPPRLPRPRPRPNQRPRP was tested. Which “shrunken log2 fold change” value did it give?
The value was 0.0593.

RRIRPRPPRLPRPRPRPATFPRP was tested. Which “shrunken log2 fold change” value did it give?
Its value is -0.305.

How did the “shrunken log2 fold change” value turn out when RRIRPRPPRLPRPRPRPDRFPRP was run?
The value was -0.137.

For RRIRDRPPRLPRPRPRPAKGPRP, which “shrunken log2 fold change” value is on record?
The value was -0.0222.

With RRIRNRPPRLPRPRPRPMSIPRP as the sequence, how does the “shrunken log2 fold change” value read?
Its value is 0.00262.

RRIRSRPPRLPRPRPRPVKIPRP was tested. Which “shrunken log2 fold change” value did it give?
The value was -0.131.

How did the “shrunken log2 fold change” value turn out when RRIRSRPPRLPRPRPRPVGWPRP was run?
The value was 0.839.

For RRIRDRPPRLPRPRPRPGCYPRP, which “shrunken log2 fold change” value is on record?
Its value is 0.0592.

For RRIRNRPPRLPRPRPRPTMLPRP, which “shrunken log2 fold change” value is on record?
The value was -0.241.

Which “shrunken log2 fold change” value does the source give for RRIRSRPPRLPRPRPRPDCIPRP here?
Its value is -0.163.

How did the “shrunken log2 fold change” value turn out when RRIRKRPPRLPRPRPRPYMRPRP was run?
Its value is -0.0194.

RRIRIRPPRLPRPRPRPVWTPRP was tested. Which “shrunken log2 fold change” value did it give?
The value was -0.273.

With RRIRLRPPRLPRPRPRPCLYPRP as the sequence, how does the “shrunken log2 fold change” value read?
Its value is -0.247.

For RRIRKRPPRLPRPRPRPSHFPRP, which “shrunken log2 fold change” value is on record?
The value was 0.355.

Which “shrunken log2 fold change” value does the source give for RRIRERPPRLPRPRPRPVYNPRP here?
The value was -0.0493.

RRIRERPPRLPRPRPRPVGGPRP was tested. Which “shrunken log2 fold change” value did it give?
Its value is 0.21.

For RRIRDRPPRLPRPRPRPDGLPRP, which “shrunken log2 fold change” value is on record?
Its value is 0.107.

With RRIRSRPPRLPRPRPRPQLFPRP as the sequence, how does the “shrunken log2 fold change” value read?
The value was 0.309.

For RRIRYRPPRLPRPRPRPQLSPRP, which “shrunken log2 fold change” value is on record?
Its value is -0.0974.

RRIRHRPPRLPRPRPRPGAQPRP was tested. Which “shrunken log2 fold change” value did it give?
Its value is 0.187.

For RRIRQRPPRLPRPRPRPKSMPRP, which “shrunken log2 fold change” value is on record?
The value was -0.179.

With RRIRERPPRLPRPRPRPQFGPRP as the sequence, how does the “shrunken log2 fold change” value read?
The value was 0.222.

For RRIRDRPPRLPRPRPRPYHRPRP, which “shrunken log2 fold change” value is on record?
The value was 0.0231.

Which “shrunken log2 fold change” value does the source give for RRIRQRPPRLPRPRPRPPREPRP here?
The value was 0.655.

For RRIRPRPPRLPRPRPRPCCGPRP, which “shrunken log2 fold change” value is on record?
Its value is -0.0386.

How did the “shrunken log2 fold change” value turn out when RRIRFRPPRLPRPRPRPPCTPRP was run?
Its value is -0.228.

With RRIRGRPPRLPRPRPRPCFCPRP as the sequence, how does the “shrunken log2 fold change” value read?
The value was 0.609.

With RRIRKRPPRLPRPRPRPMDVPRP as the sequence, how does the “shrunken log2 fold change” value read?
Its value is 0.0608.

For RRIRCRPPRLPRPRPRPCEFPRP, which “shrunken log2 fold change” value is on record?
The value was -0.0925.

RRIRWRPPRLPRPRPRPSYTPRP was tested. Which “shrunken log2 fold change” value did it give?
Its value is -0.656.

How did the “shrunken log2 fold change” value turn out when RRIRNRPPRLPRPRPRPMFCPRP was run?
The value was 0.0294.

RRIRCRPPRLPRPRPRPHTTPRP was tested. Which “shrunken log2 fold change” value did it give?
Its value is -0.716.

Which “shrunken log2 fold change” value does the source give for RRIRNRPPRLPRPRPRPVNQPRP here?
The value was 0.214.

Which “shrunken log2 fold change” value does the source give for RRIRWRPPRLPRPRPRPTQSPRP here?
The value was 0.472.

Which “shrunken log2 fold change” value does the source give for RRIRVRPPRLPRPRPRPKPAPRP here?
Its value is 0.431.

Which “shrunken log2 fold change” value does the source give for RRIRHRPPRLPRPRPRPNSYPRP here?
Its value is 0.118.

Which “shrunken log2 fold change” value does the source give for RRIRYRPPRLPRPRPRPQPFPRP here?
The value was 0.00414.

RRIRQRPPRLPRPRPRPMCEPRP was tested. Which “shrunken log2 fold change” value did it give?
The value was -0.00149.

How did the “shrunken log2 fold change” value turn out when RRIRDRPPRLPRPRPRPMCKPRP was run?
The value was 0.108.

For RRIRRRPPRLPRPRPRPPKNPRP, which “shrunken log2 fold change” value is on record?
The value was 0.671.

With RRIRGRPPRLPRPRPRPFADPRP as the sequence, how does the “shrunken log2 fold change” value read?
The value was 2.03.

RRIRVRPPRLPRPRPRPGMTPRP was tested. Which “shrunken log2 fold change” value did it give?
The value was 0.177.

For RRIRGRPPRLPRPRPRPCFSPRP, which “shrunken log2 fold change” value is on record?
The value was 0.0442.
